Reference: patent US5019384A, “Immunonodulating compositions and their use” (Massachusetts Institute of Technology, priority 1989, dated 1991)
“Also recorded” adds a separate entry of the source.

Tests used:
[1] = molecular target: T1, I-E^d (Mus musculus, UniProt P01904+P01915); test: Inhibition of binding of 125I-labeled Myoglobin (P132-153) to I-E^d; conditions: 125I Myoglobin (P132-153) bound to I-E^d; read-out: Concentration (μM) of P12-26 Required for 50 percent Inhibition
T1 construct: endogenous in cells
T1 sequence (P01904 26-255): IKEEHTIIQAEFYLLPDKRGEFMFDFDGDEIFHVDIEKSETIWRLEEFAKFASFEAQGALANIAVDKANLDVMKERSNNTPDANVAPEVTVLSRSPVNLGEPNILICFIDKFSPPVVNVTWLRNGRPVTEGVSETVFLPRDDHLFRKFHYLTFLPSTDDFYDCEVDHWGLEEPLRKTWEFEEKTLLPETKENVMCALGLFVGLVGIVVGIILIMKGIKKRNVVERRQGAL
T1 sequence (P01915 27-264 limits assumed): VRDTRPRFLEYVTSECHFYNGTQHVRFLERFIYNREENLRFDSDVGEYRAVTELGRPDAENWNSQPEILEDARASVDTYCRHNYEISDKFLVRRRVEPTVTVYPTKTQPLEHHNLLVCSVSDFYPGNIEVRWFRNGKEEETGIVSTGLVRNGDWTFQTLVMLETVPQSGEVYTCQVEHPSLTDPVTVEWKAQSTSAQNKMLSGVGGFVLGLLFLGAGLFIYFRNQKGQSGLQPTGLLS
From the text: (§1) Ia-molecules were purifed from Nonidet P-40 (NP-40) lysates of A20 (H2^d) or AKTB-1b (H2^k) cells by affinity chromatography using the following monoclonal antibodies: MK-D6 (I-A^d -specific), 10-3-6 (I-A^k -specific) specific) or 14-4-4 (I-E^d/k -specific) coupled to Sepharose 4B beads (Pharmacia Fine Chemicals, Sweden).
A gel filtration assay was used for determining the degree of association between immunogenic peptides and Ia. The assay is described in: Buus, S. et al., Proceeding of the National Academy of Sciences, U.S.A. (1986) 83:3968, the teaching of which is incorporated herein by reference. […] The Ia-peptide complexes were separated from free peptide by gel filtration and the percentage of peptide bound to Ia was calculated as the ratio of the ^125 I-labeled peptide in the void volume to the total ^125 I-labeled peptide recovered.
For the inhibition assay a dose-range of unlabeled cI P12-26 peptide was added to the incubation mixture of Ia and ^125 I-labeled peptide (600, 120, 24, ad 48 μM). The degree of association between Ia and labeled peptide was determined by gel filtration as described in Table 1. […] The concentration of inhibitory peptide required to obtain a 50 percent inhibition of binding was calculated. […]

[2] = molecular target: T1, I-E^d; test: Gel filtration binding of 125I-labeled peptide to purified Ia (I-E^d)
From the text: (§2) The peptide P12-26 was modified by the addition of a tyrosine residue to the N-terminus to serve as an acceptor for the ^125 I.
as §1
(§3) A gel filtration assay was used for determining the degree of association between immunogenic peptides and Ia. The assay is described in: Buus, S. et al., Proceeding of the National Academy of Sciences, U.S.A. (1986) 83:3968, the teaching of which is incorporated herein by reference. Briefly, 40 μmole of purified Ia in 1 percent NP-40/PBS was mixed with 0.2 μmole of ^125 I-labeled peptide (approximately 200,000 cpm for each experiment) and incubated for 48 hours at room temperature to allow for formation of the Ia-peptide complex. The Ia-peptide complexes were separated from free peptide by gel filtration and the percentage of peptide bound to Ia was calculated as the ratio of the ^125 I-labeled peptide in the void volume to the total ^125 I-labeled peptide recovered.

[3] = molecular target: T2, I-A^d (Mus musculus, UniProt P01921+P04228); test: Gel filtration binding of 125I-labeled peptide to purified Ia (I-A^d)
T2 construct: endogenous in cells
T2 sequence (P04228 24-256): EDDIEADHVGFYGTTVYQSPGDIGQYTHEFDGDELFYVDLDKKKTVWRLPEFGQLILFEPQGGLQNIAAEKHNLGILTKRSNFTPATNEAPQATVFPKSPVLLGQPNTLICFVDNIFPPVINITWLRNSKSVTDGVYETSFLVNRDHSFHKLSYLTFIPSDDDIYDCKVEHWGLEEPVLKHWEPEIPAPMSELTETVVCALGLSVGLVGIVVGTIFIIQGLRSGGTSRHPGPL
T2 sequence (P01921 28-265): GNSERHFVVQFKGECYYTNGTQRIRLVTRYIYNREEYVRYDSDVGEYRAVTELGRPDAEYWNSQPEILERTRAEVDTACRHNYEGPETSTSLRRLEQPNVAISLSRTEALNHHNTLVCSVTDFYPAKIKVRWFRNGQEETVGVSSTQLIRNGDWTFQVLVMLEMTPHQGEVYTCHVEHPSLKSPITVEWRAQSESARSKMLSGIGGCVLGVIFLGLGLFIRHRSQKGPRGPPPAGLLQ
From the text: as §2, §1, §3

[4] = test system: Lymph node-derived T-cell; test: Lymph node-derived T-cell proliferation in mice immunized with (NANP)3-12-26; format: in vivo; conditions: eight days after immunization with (NANP)3-12-26
Experimental: For T-cell proliferation studies 100 μg of (NANP)3-12-26 emulsified in CFA was injected in the base of the tail and also food pad of mice on day 0. […] Cells were seeded at 8×10^5 /well flat bottom microtiter plates 1/2 volume in 0.1 ml RPMI containing 10% FCS, […], penicillin, streptomycin and antigen. On day 2, 1 μCi of ^3 H thymidine (ICN) was added to triplicate or duplicate cultures. 16 hr later cells were harvested and incorporated ^3 H was assayed by scintillation counter.
All T-cell activity is directed to the Class II binding sequence.

[5] = test system: monoclonal antibody specific for (NANP)50; test: Inhibition of binding of monoclonal antibody specific for (NANP)50 to (NANP)50; design: species or system mice; conditions: radiolabelled (NANP)50 bound to microwells
From the text: The above study was repeated except the antigen was radiolabelled (NANP)50 which was bound to microwells.

[6] = test system: monoclonal antibody B3.11; test: Inhibition of monoclonal antibody B3.11 binding to BSA conjugated to P12-26; conditions: BSA conjugated to P12-26 adsorbed to microwells; inhibitors listed in order of decreasing inhibition
From the text: Antibody recognition of (NANP)3-12-26 by monoclonal antibodies was studied. The antigen, bovine serum albumin (BSA) conjugated to P12-26 was adsorbed to microwells and horseradish peroxidase (HRP) labeled antibody specific for P12-26 added. In the absence of (NANP)3-12-26 or in the presence of P12-26LF, there is no inhibition of monoclonal antibody B3.11 binding.

In the case of “P12-26: derived from the cI protein of bacteriophage lambda (residues 12-26)”, the IC50 [1] is reported as 4 µM, the “Binding to the I-E^d molecule (in words)” value [2] is reported as “binds most tightly; also recorded: binds best; also recorded: binds exceedingly well” and the “Binding to the I-A^d molecule (in words)” value [3] is reported as “able to bind to both molecules as expected”. For the same substance, the “T-cell proliferation by thymidine incorporation on culture with peptide” value [4] was “T-cell proliferation as assayed by thymidine incorporation was seen”, the “Inhibition of binding of monoclonal antibody specific for (NANP)50” value [5] was “did not inhibit binding” and the “Inhibition of monoclonal antibody B3.11 binding” value [6] was “Inhibition is observed”.
